Results taken from the supplement of paper PMC6757056.
± gives the standard deviation of the averaged measurements.

B1: library; a variant is named by its letters at N, in order (parent)
chain: GCUGUCACCGGUGCUUGGUACGUUAUAUUCAGCCGGUCUGAUGAGUCUNNNNNNAGACGAAACAGC

Key:
[1] = variants of: B1; test: normalized RNA/DNA level without ligand (relative to sTRSVctl = 100) (log10 (% of sTRSVctl)); HEK293T overexpressing SLC46A1; higher = less ribozyme self-cleavage, higher mRNA level; settings: without (6R,S)-folinic acid; ligand present: no
Outline: (§1)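 Total RNA, extracted with EDTA 72 h after HEK293T cells were transfected with 4 µg per 6-well well of reporter-linked ribozyme switch library plasmids, was reverse-transcribed, amplified, barcoded and sequenced. Ligand, if used, was added 1 h before transfection. RNA level was derived from RNA reads divided by DNA reads and normalized to a spiked-in non-cleaving sequence or to the top sequences. This was multiplied by 100 and log10-transformed, with the top set of 25 sequences and a ≥100 DNA read minimum.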

[2] = variants of: B1; test: normalized RNA/DNA level with ligand (relative to sTRSVctl = 100) (log10 (% of sTRSVctl)); HEK293T overexpressing SLC46A1; ligand concentration (+) RNA-Seq: 6 mM; higher = less ribozyme self-cleavage, higher mRNA level; settings: with (6R,S)-folinic acid; ligand present: yes
Outline: as §1

Variant | normalized RNA/DNA level without ligand (log10) [1] | normalized RNA/DNA level with ligand (log10) [2]
GAAGGG | 1.87 ± 0.00046 | 2.03 ± 0.043
CGGGGA | 2.104 ± 0.0034 | 2.11 ± 0.065
GGCUAA | 2.036 ± 0.011 | 2.05 ± 0.033
GACGAC | 1.956 ± 0.004 | 2.009 ± 0.018
CGAUUC | 2.089 ± 0.019 | 2.08 ± 0.048
AAUGAU | 1.937 ± 0.012 | 2 ± 0.051
UCAGAC | 2.046 ± 0.0027 | 1.997 ± 0.016
ACACUA | 2.017 ± 0.012 | 2.01 ± 0.043
GCCGCC | 2.024 ± 0.0036 | 2.0189 ± 0.00031
GCUAUC | 2.083 ± 0.0023 | 2.013 ± 0.019
AGGGUU | 2.021 ± 0.0045 | 2.01 ± 0.035
CUGUGU | 1.997 ± 0.017 | 2.011 ± 0.004
GUCGAG | 1.947 ± 0.0022 | 2 ± 0.036
GAUUGC | 1.974 ± 0.015 | 2 ± 0.036
GGUUCA | 1.99 ± 0.02 | 2 ± 0.036
GUUAAU | 1.9687 ± 4.4e-05 | 2.04 ± 0.026
GUUAAC | 1.976 ± 0.0067 | 2.024 ± 0.015
GCGCAA | 1.948 ± 0.0028 | 1.98 ± 0.027
UCGAGA | 2.006 ± 0.0024 | 2.07 ± 0.049
GCUACC | 2.06 ± 0.023 | 2.05 ± 0.033
AGUGCA | 1.97 ± 0.025 | 1.996 ± 0.016
GCUGUC | 2.0466 ± 0.00088 | 2.02 ± 0.026
GCGGGA | 2.041 ± 0.0095 | 2.06 ± 0.023
CUUAAA | 1.9796 ± 8.1e-05 | 1.968 ± 0.017

Variant | normalized RNA/DNA level without ligand (log10) [1] | normalized RNA/DNA level with ligand (log10) [2]
CCCUUG | 2.069 ± 0.0099 | 2.091 ± 0.017
UUGCCU | 2.07 ± 0.028 | 2.07 ± 0.024
AUAACG | 1.9455 ± 0.0011 | 2.02 ± 0.033
UGUAGU | 1.903 ± 0.015 | 2.06 ± 0.059
GCCCUA | 2.034 ± 0.015 | 2.05 ± 0.032
GCGUCA | 2.06 ± 0.025 | 2.08 ± 0.031
UAUUGC | 1.941 ± 0.011 | 1.96 ± 0.034
GCGUUU | 2.037 ± 0.017 | 2.04 ± 0.022
CGAUAC | 1.995 ± 0.013 | 2.015 ± 0.0083
GACCCG | 2.031 ± 0.0022 | 2 ± 0.06
CAAUGC | 2.03 ± 0.027 | 2.023 ± 0.02
GCUUUU | 2.01 ± 0.047 | 2.02 ± 0.035
GGGGGC | 1.94 ± 0.038 | 2.03 ± 0.022
CACGGG | 1.91 ± 0.0032 | 1.992 ± 0.0038
UCAUUU | 2.021 ± 0.014 | 2.02 ± 0.047
AAGUAU | 1.959 ± 0.011 | 2.02 ± 0.03
CAUCAA | 1.977 ± 0.0041 | 1.97 ± 0.021
UACUUU | 2.001 ± 0.0048 | 2.03 ± 0.042
ACCCCG | 1.998 ± 0.0083 | 1.99 ± 0.073
UGAGUC | 2.011 ± 0.012 | 2 ± 0.049
GAAUCU | 2.011 ± 0.0071 | 2.04 ± 0.037
GGAGCA | 1.978 ± 0.0021 | 2.02 ± 0.022
UCCCAG | 1.962 ± 0.014 | 2.04 ± 0.03
CAUGCG | 2.01 ± 0.019 | 2.01 ± 0.032

Variant | normalized RNA/DNA level without ligand (log10) [1] | normalized RNA/DNA level with ligand (log10) [2]
CAUUCA | 1.96 ± 0.02 | 1.9724 ± 0.001
CAUUCG | 2.037 ± 0.0077 | 2 ± 0.032
AAUCAA | 1.973 ± 0.014 | 1.9902 ± 0.00064
UGACGU | 1.97 ± 0.03 | 2.02 ± 0.023
GUUUCG | 1.99 ± 0.027 | 1.99 ± 0.039
AGAUUG | 1.89 ± 0.014 | 2.004 ± 0.018
UAAUUC | 2.01 ± 0.027 | 2.02 ± 0.031
UAAUUU | 1.979 ± 0.0057 | 2.01 ± 0.032
CCGCGA | 2.06 ± 0.024 | 2.06 ± 0.034
GAGCUU | 2.051 ± 0.011 | 2.04 ± 0.064
ACUUUG | 1.94 ± 0.043 | 2.001 ± 0.015
CAUCCC | 2.063 ± 0.0042 | 2.041 ± 0.011
GCACCC | 2.024 ± 0.004 | 2.012 ± 0.0027
CGUGCA | 2.01 ± 0.022 | 2.03 ± 0.021
CGGCGU | 2.05 ± 0.027 | 2.02 ± 0.046
AAGACU | 2.01 ± 0.0024 | 2.02 ± 0.04
AACUGC | 2.048 ± 0.015 | 2.06 ± 0.038
CCGUAC | 1.99 ± 0.019 | 2.014 ± 0.017
CGUUCU | 2.07 ± 0.034 | 2.03 ± 0.034
CCCCGU | 2.05 ± 0.028 | 2.047 ± 0.01
GUGCUA | 1.994 ± 0.0059 | 1.98 ± 0.04
CUACCA | 2.0575 ± 0.0015 | 2.0336 ± 0.0013
UGAAGC | 1.964 ± 0.018 | 2 ± 0.021
ACGGGG | 1.997 ± 0.018 | 2.065 ± 0.02

Variant | normalized RNA/DNA level without ligand (log10) [1] | normalized RNA/DNA level with ligand (log10) [2]
CCAAGG | 2 ± 0.0033 | 1.991 ± 0.014
CGCGAA | 1.9769 ± 0.0003 | 2.01 ± 0.031
CUCUGA | 2.067 ± 0.012 | 2.046 ± 0.0084
UCAGCA | 2.032 ± 0.016 | 2.062 ± 0.02
UGGGGU | 1.94 ± 0.026 | 2.0251 ± 0.00068
AUAUCU | 2.0373 ± 0.00034 | 2.05 ± 0.04
GAACCA | 2.0209 ± 0.0019 | 2.01 ± 0.037
AUUCUC | 2.072 ± 0.012 | 2.04 ± 0.042
GGCCUU | 2.108 ± 0.0078 | 2.09 ± 0.042
UCAGUA | 1.98 ± 0.021 | 2 ± 0.046
CUUUGC | 2.047 ± 0.017 | 2.027 ± 0.016
CGGACC | 2.072 ± 0.0055 | 2.0545 ± 0.0011
UUACAA | 1.963 ± 0.0022 | 2.01 ± 0.028
CUAUUA | 2.017 ± 0.013 | 2.009 ± 0.0054
GGUCUU | 2.02 ± 0.027 | 2.01 ± 0.032
CCAAUU | 2.039 ± 0.0021 | 2.05 ± 0.037
GAUCGG | 2.084 ± 0.015 | 2.07 ± 0.04
GGUACG | 2.025 ± 0.017 | 2.04 ± 0.049
UGUUGC | 1.98 ± 0.024 | 2.059 ± 0.0084
GGACAC | 2.013 ± 0.013 | 2.03 ± 0.039
CGAACG | 2.0268 ± 0.0006 | 2.024 ± 0.0057
GUUGGC | 1.914 ± 0.019 | 2.02 ± 0.036
AUGAUC | 2.07 ± 0.028 | 2.06 ± 0.032
AGUGAG | 1.767 ± 0.0046 | 1.96 ± 0.028

Variant | normalized RNA/DNA level without ligand (log10) [1] | normalized RNA/DNA level with ligand (log10) [2]
ACGAGU | 2.027 ± 0.0034 | 2.028 ± 0.0065
ACCAGC | 2.071 ± 0.0016 | 2.06 ± 0.038
UUGGCG | 1.8766 ± 0.00065 | 2.03 ± 0.062
UACCCU | 2.032 ± 0.0098 | 2 ± 0.041
AGUAAG | 1.897 ± 0.0041 | 2.01 ± 0.057
CAUCGU | 2.05 ± 0.021 | 2.02 ± 0.025
GUGCCA | 2.057 ± 0.015 | 2.006 ± 0.0095
UCCCCG | 1.997 ± 0.008 | 2.041 ± 0.019
AGAAUU | 2.005 ± 0.02 | 2.021 ± 0.008
UUAGGU | 1.942 ± 0.0098 | 1.971 ± 0.016
CGAAUG | 2.0224 ± 0.0012 | 2.034 ± 0.012
AUGAGG | 1.812 ± 0.017 | 2.009 ± 0.013
AGAACA | 2.007 ± 0.0027 | 2.02 ± 0.045
UCCACU | 2.041 ± 0.0029 | 2.052 ± 0.014
CGCUUG | 2.066 ± 0.018 | 2.041 ± 0.015
AUCUGC | 2.06 ± 0.028 | 2.05 ± 0.052
UAUCGA | 1.927 ± 0.0098 | 2 ± 0.028
UCCUAG | 1.849 ± 0.004 | 2.009 ± 0.0087
CAUAGU | 2.003 ± 0.013 | 2.025 ± 0.0053
CAUGGA | 2.0099 ± 0.0018 | 2.04 ± 0.025
